Measurements published in PMC3315643.

Experiments:
purified protein [1] = substrate: O=C1C=CC(=O)C=C1; test: purified protein; conditions: pH 4.0; 30.0 °C
purified protein [2] = substrate: O=C1C=CC(=O)C(Cl)=C1; test: purified protein; conditions: pH 5.0; 30.0 °C

B1: recPDH1 (recombinant pyranose dehydrogenase PDH1) (Macropsalliota meleagris) (protein)
chain: AITYQHPDDLPSGVDYDFIVAGGGTAGLVVASRLSENSNWKVLVIEAGPSNKDAFVTRVPGLASTLGAGSPIDWNYTTIPQDGLDGRSLDYPRAKILGGCSTHNGMVYTRGSKDDWNSWAGIIGDQGLGWDSILPAIKKAEKFTQDFTDQSVKGHIDPSVHGFDGKLSVSAAYSNISFNDLLFETTKELNAEFPFKLDMNDGKPIGLGWTQYTIDNHAERSSSATSYLESTGDNVHVLVNTLVTRVLSASGNGTDFRKVEFAVDANSPKKQLEAKKEVIVAGGVIASPQILMNSGIGERKVLQAVGIDTLIDNPSVGKNLSDQGATSVMFDTTLPSTDFDVDAALTEWTNSHTGPLARGARLNHLTFVRLPDDKLNGQDPSSGKNSPHIEFQFAQITPQVPTLGVPKQAPLPAANSYRLLLQLAVVNLYSISRGSISLSDNNPFTYPLIDLNMFKEDIDIAILREGIRSAGRMFSSKAFKNSVNKFVYPPADATSDEDLDAFLRSSTFSYVHGVGTLSMSPKGASWGVVNPDFKVKGTSGLRVVDASVIPHAPAAHTQLPVYAFAEYASALIAKSYN
Km (purified protein [1]): 1380 ± 280 µM | kcat/Km (purified protein [1]): 54400 M⁻¹ s⁻¹ | Km (purified protein [2]): 620 ± 110 µM | kcat/Km (purified protein [2]): 20900 M⁻¹ s⁻¹
